B1: DVL3 (parent)
chain: SDVVDWLYHNVEGFTDRREARKYA

Variants of: B1
Assay: protein stability index of a GFP-peptide fusion (GPS, HEK-293T) (PSI 1-6); higher = more stable
Settings: c terminus: a fixed tail appended
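Note: lentivirally expressed fusions sorted by FACS into six bins by GFP to DsRed ratio, PSI derived from sequencing read proportions per bin multiplied by bin number.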

Protein stability index: each site, then its substitutions
L7: C 3.65, G 4.25, I 3.01, W 3.58, R 2.65, A 3.54, T 4.05, D 4.58, Y 3.28, H 4.68, M 3.44, F 2.12, K 4.64, S 4.75, Q 4.31, P 3.63, V 3.5, E 5.12
F14: G 3.96, P 3.61, N 3.61, K 4.76, E 4.77, H 3.27, C 3.04, L 3.11, T 3.87, D 3.95, Q 3.86, S 4.19, W 3.18, I 3.97, R 2.56
A20: H 3.02, V 1.83, W 2.18, M 3.28, I 1.98, K 2.56, E 3.5, L 2.34, N 2.96, P 4.29, D 3.1, C 2.73, G 4.09, S 3.43, R 3.15, F 2.28, Q 2.69, Y 2.34, T 3.16
N10: F 1.75, E 3.69, Y 2.01, W 2.63, M 1.94, C 2.1, A 2.1, K 2.34, H 2.7, L 2, V 2.58, S 3.01, R 2.6, G 3.03, D 4.09, T 3.33, Q 2.91, I 2.25
D16: W 2.12, Y 2.06, Q 3.19, F 2.94, V 2.24, M 2.29, E 3, P 3.74, L 2.07, I 3.24, A 2.45, R 2.21, T 2.66, H 2.37, K 2.29, C 1.92
E19: V 2.66, P 2.85, S 2.73, C 2.38, D 3.18, H 2.58, A 2.54, F 2.34, I 2.25, K 2.33, Y 1.73, M 2.67, W 1.82, L 2.35, G 3.02, T 2.64, N 2.86
R18: A 3.19, G 2.38, H 3.41, F 2.35, V 3.53, Q 2.94, S 3.43, K 2.97, M 2.4, I 2.42, T 3.59, N 3.55, L 2.04, P 3.03, E 3.84, Y 2.19, D 3.99, W 1.55, C 2.52
R21: N 3.21, L 3.1, Y 2.34, Q 3.35, F 2.65, E 3.57, C 2.31, W 1.67, D 3.52, K 3.24, V 2.78, T 3.88, H 3.02, M 2.35, P 2.66, I 2.33, S 2.84, A 2.48
K22: C 2.13, N 3.45, A 2.73, I 2.85, W 2.06, T 2.95, P 3.31, M 2.06, E 3.24, L 2.19, S 3.31, R 2.29, D 2.89, G 2.68, V 2.36, F 1.83, H 3, Q 2.81
D5: P 3.71, F 2.21, A 1.98, C 1.84, N 2.07, K 2.36, M 2.87, I 1.82, Y 2.53, H 2.44, L 1.41, V 1.19, E 3.6, T 2.75, W 1.7, S 2.5, Q 3.23, G 3.06
W6: V 4.58, H 4.21, R 4.79, I 4.13, G 4.32, K 4.38, A 4.58, L 4.35, E 4.97, Q 4.22, D 4.75, Y 3.6, N 4.95, P 4.86, M 3.82, C 3.81, F 2.9, T 4.54, S 4.76
T15: R 2.91, L 2.91, H 3.23, C 2.67, D 3.04, K 2.56, Q 3.21, A 2.32, P 2.92, V 2.85, Y 3.24, I 2.83, F 2.15, W 2.74, N 3.13, M 3.02, G 2.7
E12: H 2.88, V 1.28, L 2.08, P 2.33, Y 1.58, D 2.96, S 2.83, Q 2.98, N 2.5, T 2.63, G 2.37, W 2.04, A 3.49, M 2.01, K 3.54, C 2.18, R 2.78, F 1.98, I 1.94
R17: M 2.63, W 2, Q 3.67, N 2.65, T 3.09, H 4.21, I 1.82, P 3.33, L 2.69, Y 2.45, A 2.81, E 3.82, S 3.9, V 2.37, C 3.43, K 3.7, D 3.56, F 2.16
Y8: D 4.61, K 3.83, S 3.56, L 2.27, C 3.79, N 3.87, P 4.51, E 4.2, M 2.74, I 2.39, T 3.63, V 2.93, Q 3.81, W 2.31, G 4.25
H9: F 2.14, R 2.8, K 2.67, T 2.67, N 3.83, Y 3.21, L 2.55, S 2.94, I 2.09, A 2.37, V 2.16, G 3.32, M 2.79, Q 3.11, P 4, D 3.66, W 2.42, C 2.13
G13: M 2.71, D 3.66, N 2.66, W 2.52, T 2.93, Q 2.33, F 1.61, V 2.14, C 2.68, H 2.56, Y 2.1, P 3.2, K 2.95, S 2.96, E 3.3, L 2.28, I 2.28, A 2.71, R 3.93
V11: L 2.03, M 2.58, Q 3.36, I 2.61, A 2.8, T 2.67, C 3.07, R 3.1, F 2.46, N 3.83, Y 3.48, H 3.6, W 2.36, P 4.08, E 3.53, G 4.04, S 2.45, K 3.85, D 3.62
V4: S 3.68, N 3.89, R 3.84, H 3.52, M 3.76, T 3.6, K 3.46, P 3.81, G 3.84, I 2.56, Y 3.21, Q 3.67, W 2.44, L 2.98

From the supplement of paper PMC10567573
